This is an account of results in patent publication US20260193376A1 (Novo Nordisk, published 2026).

In assay [1] the target is human plasma-derived Factor IXa (human, UniProt P00740 47-191; P00740 227-461). Nature of the assay: cell-based or functional assay.
The target of assay [2] is T1, randomly biotinylated human FIXa (human, UniProt P00740 47-191; P00740 227-461, randomly biotinylated (NHS-d-biotin)). Kind of assay: BLI (Octet) in-tandem binning on biotinylated FIXa, 330 nM each; competitor (1st antibody): mAb01-1767. On the procedure: (§1) Binning experiments were performed using Octet fortebio systems (HTX, Red384), based on the principle of Bio-Layer Interferometry, and equipped with streptavidin sensors (Pall Life Sciences, Menlo Park, CA), and using 8-channel mode. The binning assays were performed using a modified in-tandem setup. Briefly, (1) 370 nM randomly biotinylated human FIXa (biotinylated using NHS-d-biotin from Sigma H1759 and human FIXa obtained from Haematologic Technologies, Essex Junction, VT) was captured by streptavidin tips (dip and read biosensors Part NO:18-5019, Pall Life Sciences, Menlo Park, CA) for 5 minutes, (2) 330 nM of a first bivalent anti-FIXa antibody was then offered to the streptavidin tips, and incubated for 10 minutes until the biotinylated FIXa were fully saturated and (3) the tips were then offered to an equimolar solution of 330 nM of the first antibody and 330 nM of a second bivalent anti-FIXa antibody for 5 minutes. […] Unspecific binding were evaluated by including an unrelated human IgG4 bivalent antibody as first and second antibody control.
T1 sequence (P00740 47-191, chain 1 of 2): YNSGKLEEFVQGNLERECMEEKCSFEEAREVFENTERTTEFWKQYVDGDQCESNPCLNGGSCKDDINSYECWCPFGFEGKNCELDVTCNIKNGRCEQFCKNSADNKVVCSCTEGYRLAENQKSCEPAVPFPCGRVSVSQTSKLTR
T1 sequence (P00740 227-461, chain 2 of 2): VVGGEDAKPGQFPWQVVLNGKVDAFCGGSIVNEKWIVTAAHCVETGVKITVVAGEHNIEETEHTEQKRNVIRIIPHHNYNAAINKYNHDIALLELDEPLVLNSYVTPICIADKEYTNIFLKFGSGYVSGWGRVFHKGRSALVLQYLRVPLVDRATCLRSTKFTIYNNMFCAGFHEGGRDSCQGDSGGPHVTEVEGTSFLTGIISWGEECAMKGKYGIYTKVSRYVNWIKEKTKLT
(In general: BLI is a label-free optical method that tracks binding on a fibre tip over time.)

For assay [3], the target named is T1, randomly biotinylated human FIXa. Nature of the assay: BLI (Octet) in-tandem binning on biotinylated FIXa, 330 nM each; competitor (1st antibody): hIgG4 (control). On the procedure: as §1
Assay [4] has the same target. Nature of the assay: BLI (Octet) in-tandem binning on biotinylated FIXa, 330 nM each; competitor (1st antibody): 224F3. On the procedure: as §1
The target is the same in assay [5]. Nature of the assay: BLI (Octet) in-tandem binning on biotinylated FIXa, 330 nM each; competitor (1st antibody): mAb01-2434. On the procedure:
as §1

human plasma-derived Factor IXa, sequence (P00740 47-191, chain 1 of 2): as the sequence (P00740 47-191, chain 1 of 2) above
human plasma-derived Factor IXa, sequence (P00740 227-461, chain 2 of 2): as the sequence (P00740 227-461, chain 2 of 2) above

B1: bimAb05-0745 (bispecific antibody, V domains shown)
VH 1: EVQLVESGGGLVQPGRSLRLSCAASGFTFHDYAMHWVRQVPGKGLEWVSGISWKGDIGGYVDSVKGRFTISRDNEKNSLYLQMNSLRAEDTALYYCVKSYGSGSFYNAFDSWGQGTLVTVSS
VL 1: DIQMTQSPSTLSASVGDRVTITCRASQSISSWLAWYQQKPGKAPKFLIYKASRLDRGTPSRFSGSGSGTEFSLTISSLQPDDFATYYCLEYSSYIRTFGQGTKVEIK
VH 2: EVQLVQSGAEVKKPGESLRISCKGSGYSFSTSWIVWVRQMPGKGLEWMGMIDPSDSFTSYSPSFQGHVTISADKSISTAYLQWSSLKASDTAMYYCARLHYYNSEEFDVWGQGTLVTVSS
VL 2: EIVLTQSPGTLSLSPGERATLSCRASQSVSSSYLAWYQQKPGQAPRLLIYGQSSRTRGIPDRFSGSGSGTDFTLTISRLEPEDFAVYYCQQFGDSQLFTFGQGTKLEIK
Turning to B1, in assay [1], the “Maximum stimulation (fold), FXa generation assay with bispecific antibody; maximum at 7980 nM” value came out at 21100 fold.

B2: bimAb05-3761 (bispecific antibody, V domains shown)
VH 1: EVQLVESGGGLVQPGRSLKLSCAASGFTFDDYAMHWVRQVPGKGLEWVSGISWKGDIGGYVDSVKGRFTISRDNAKNSLYLQLNSLRAEDTALYYCAKSYGSGSFYNAFDSWGQGTLVTVSS
VL 1: DIQMTQSPSTLSASAGDEVTITCRASQSISSWLAWYQQKPGKAPKLLIYKASKLDRGVPSRFSGSGSGTEFSLTISDLQPDDFATYYCLEYSSYIRTFGQGTKVEIK
VH 2: EVQLVQSGAEVKKPGESLRISCKGSGYSFSTSWIVWVRQMPGKGLEWMGMIDPSDSFTSYSPSFQGHVTISADKSISTAYLQWSSLKASDTAMYYCARLHYYNSEEFDVWGQGTLVTVSS
VL 2: EIVLTQSPGTLSLSPGERATLSCRASQSVSSSYLAWYQQKPGQAPRLLIYGQSSRTRGIPDRFSGSGSGTDFTLTISRLEPEDFAVYYCQQFGDSQLFTFGQGTKLEIK
For B2, the “Maximum stimulation (fold), FXa generation assay with bispecific antibody; maximum at 2690 nM” value in assay [1] turned out to be 16300 fold.

B3: bimAb05-2114 (bispecific antibody, V domains shown)
VH 1: EVQLVESGGGLVQPGRSLRLSCAASGFTFHDYAMHWVRQVPGKGLEWVSGISWRGDIGGYVKSVKGRFTISRDNAKNSLYLQMNSLRAEDTALYYCVKSYGSGSFYNAFDSWGQGTLVTVSS
VL 1: DIQMTQSPSTLSASVGDRVTITCRASQSISSWLAWYQQKPGKAPKFLIYKASKLERGTPSRFSGSGSGTEFSLTISSLQPDDFATYYCLEYSSYIRTFGQGTKVEIK
VH 2: EVQLVQSGAEVKKPGESLRISCKGSGYSFSTSWISWVRQMPGKGLEWMGMIDPSDSYTSYSPSFQGHVTISADKSISTAYLQWSSLKASDTAMYYCARLHYYNSEEFDVWGQGTMVTVSS
VL 2: EIVLTQSPGTLSLSPGERATLSCRASQSVSSSYLAWYQQKPGQAPRLLIYGQSSRTRGIPDRFSGSGSGTDFTLTISRLEPEDFAVYYCQQYGDSQLFTFGQGTKLEIK
For B3, in assay [1], the “Maximum stimulation (fold), FXa generation assay with bispecific antibody; maximum at 7580 nM” value was 35200 fold.

B4: bimAb05-2113 (bispecific antibody, V domains shown)
VH 1: EVQLVESGGGLVQPGRSLKLSCAASGFTFDDYAMHWVRQVPGKGLEWVSGISWKGDIGGYVDSVKGRFTISRDNAKNSLYLQLNSLRAEDTALYYCAKSYGSGSFYNAFDSWGQGTLVTVSS
VL 1: DIQMTQSPSTLSASAGDEVTITCRASQSISSWLAWYQQKPGKAPKLLIYKASKLDRGVPSRFSGSGSGTEFSLTISDLQPDDFATYYCLEYSSYIRTFGQGTKVEIK
VH 2: EVQLVQSGAEVKKPGESLRISCKGSGYSFSTSWISWVRQMPGKGLEWMGMIDPSDSYTSYSPSFQGHVTISADKSISTAYLQWSSLKASDTAMYYCARLHYYNSEEFDVWGQGTMVTVSS
VL 2: EIVLTQSPGTLSLSPGERATLSCRASQSVSSSYLAWYQQKPGQAPRLLIYGQSSRTRGIPDRFSGSGSGTDFTLTISRLEPEDFAVYYCQQYGDSQLFTFGQGTKLEIK
On to B4, for which the “Maximum stimulation (fold), FXa generation assay with bispecific antibody; maximum at 7600 nM” value in assay [1] turned out to be 26300 fold.

B5: bimAb05-3769 (bispecific antibody, V domains shown)
VH 1: EVQLVESGGGLVQPGRSLRLSCAASGFTFHDYAMHWVRQVPGKGLEWVSGISWRGDIGGYVKSVKGRFTISRDNAKNSLYLQMNSLRAEDTALYYCVKSYGSGSFYNAFDSWGQGTLVTVSS
VL 1: DIQMTQSPSTLSASVGDRVTITCRASQSISSWLAWYQQKPGKAPKFLIYKASKLERGTPSRFSGSGSGTEFSLTISSLQPDDFATYYCLEYSSYIRTFGQGTKVEIK
VH 2: EVQLVQSGAEVKKPGESLRISCKGSGYSFSTSWIVWVRQMPGKGLEWMGMIDPSDSFTSYSPSFQGHVTISADKSISTAYLQWSSLKASDTAMYYCARLHYYNSEEFDVWGQGTLVTVSS
VL 2: EIVLTQSPGTLSLSPGERATLSCRASQSVSSSYLAWYQQKPGQAPRLLIYGQSSRTRGIPDRFSGSGSGTDFTLTISRLEPEDFAVYYCQQFGDSQLFTFGQGTKLEIK
With B5, the “Maximum stimulation (fold), FXa generation assay with bispecific antibody; maximum at 8170 nM” value in assay [1] came to 27400 fold.

B6: bimAb05-3755 (bispecific antibody, V domains shown)
VH 1: EVQLVESGGGLVQPGRSLRLSCAASGFTFHDYAMHWVRQVPGKGLEWVSGISWKGDIGGYVDSVKGRFTISRDNEKNSLYLQMNSLRAEDTALYYCVKSYGSGSFYNAFDSWGQGTLVTVSS
VL 1: DIQMTQSPSTLSASVGDRVTITCRASQSISSWLAWYQQKPGKAPKFLIYKASRLDRGTPSRFSGSGSGTEFSLTISSLQPDDFATYYCLEYSSYIRTFGQGTKVEIK
VH 2: EVQLVQSGAEVKKPGESLRISCKGSGYSFTTSWIVWVRQMPGKGLEWMGMIDPSDSFTSYSPSFQGHVTISADKSISTAYLQWSSLKASDTAMYYCARLHYYHSEEFDVWGQGTLVTVSS
VL 2: EIVLTQSPGTLSLSPGERATLSCRASQSVSSSYLAWYQQKPGQAPRLLIYGASSRARGIPDRFSGSGSGTDFTLTISRLEPEDFAVYYCQQFGSSRLFTFGQGTKLEIK
In the case of B6, in assay [1], the “Maximum stimulation (fold), FXa generation assay with bispecific antibody; maximum at 156 nM” value came out at 7570 fold.

B7: bimAb05-2115 (bispecific antibody, V domains shown)
VH 1: EVQLVESGGGLVQPGRSLRLSCAASGFTFHDYAMHWVRQVPGKGLEWVSGISWKGDIGGYVDSVKGRFTISRDNEKNSLYLQMNSLRAEDTALYYCVKSYGSGSFYNAFDSWGQGTLVTVSS
VL 1: DIQMTQSPSTLSASVGDRVTITCRASQSISSWLAWYQQKPGKAPKLLIYKASRLERGTPSRFSGSGSGTEFSLTISSLQPDDFATYYCLEYSSYIRTFGQGTKVEIK
VH 2: EVQLVQSGAEVKKPGESLRISCKGSGYSFSTSWISWVRQMPGKGLEWMGMIDPSDSYTSYSPSFQGHVTISADKSISTAYLQWSSLKASDTAMYYCARLHYYNSEEFDVWGQGTMVTVSS
VL 2: EIVLTQSPGTLSLSPGERATLSCRASQSVSSSYLAWYQQKPGQAPRLLIYGQSSRTRGIPDRFSGSGSGTDFTLTISRLEPEDFAVYYCQQYGDSQLFTFGQGTKLEIK
Take B7: the “Maximum stimulation (fold), FXa generation assay with bispecific antibody; maximum at 7790 nM” value in assay [1] worked out at 14900 fold.

B8: bimAb05-0746 (bispecific antibody, V domains shown)
VH 1: EVQLVESGGGLVQPGRSLRLSCAASGFTFHDYAMHWVRQVPGKGLEWVSGISWKGDIGGYVDSVKGRFTISRDNEKNSLYLQMNSLRAEDTALYYCVKSYGSGSFYNAFDSWGQGTLVTVSS
VL 1: DIQMTQSPSTLSASVGDRVTITCRASQSISSWLAWYQQKPGKAPKLLIYKASRLERGTPSRFSGSGSGTEFSLTISSLQPDDFATYYCLEYSSYIRTFGQGTKVEIK
VH 2: EVQLVQSGAEVKKPGESLRISCKGSGYSFSTSWIVWVRQMPGKGLEWMGMIDPSDSFTSYSPSFQGHVTISADKSISTAYLQWSSLKASDTAMYYCARLHYYNSEEFDVWGQGTLVTVSS
VL 2: EIVLTQSPGTLSLSPGERATLSCRASQSVSSSYLAWYQQKPGQAPRLLIYGQSSRTRGIPDRFSGSGSGTDFTLTISRLEPEDFAVYYCQQFGDSQLFTFGQGTKLEIK
B8: the “Maximum stimulation (fold), FXa generation assay with bispecific antibody; maximum at 3717 nM” value in assay [1] is 14600 fold.

B9: bimAb05-2112 (bispecific antibody, V domains shown)
VH 1: EVQLVESGGGLVQPGRSLRLSCAASGFTFHDYAMHWVRQVPGKGLEWVSGISWKGDIGGYVDSVKGRFTISRDNEKNSLYLQMNSLRAEDTALYYCVKSYGSGSFYNAFDSWGQGTLVTVSS
VL 1: DIQMTQSPSTLSASVGDRVTITCRASQSISSWLAWYQQKPGKAPKFLIYKASRLDRGTPSRFSGSGSGTEFSLTISSLQPDDFATYYCLEYSSYIRTFGQGTKVEIK
VH 2: EVQLVQSGAEVKKPGESLRISCKGSGYSFSTSWISWVRQMPGKGLEWMGMIDPSDSYTSYSPSFQGHVTISADKSISTAYLQWSSLKASDTAMYYCARLHYYNSEEFDVWGQGTMVTVSS
VL 2: EIVLTQSPGTLSLSPGERATLSCRASQSVSSSYLAWYQQKPGQAPRLLIYGQSSRTRGIPDRFSGSGSGTDFTLTISRLEPEDFAVYYCQQYGDSQLFTFGQGTKLEIK
In the case of B9, in assay [1], the “Maximum stimulation (fold), FXa generation assay with bispecific antibody; maximum at 7820 nM” value was 30400 fold.

B10: 224F3 (mAb01-1582) (antibody, V domains shown)
VH: QVQMQQSGAELVKPGASVKLSCKASGYTFTSQDINWVRQRPEQGLEWIGWIFPGDGSTKYNEKLKGKATLTTDKSSSTAFMQLSRLTSEDSAVYFCARSAYYRYDGSYYYAMDYWGQGTSVTVSS
VL: QIVLTQSPAIMSASLGEEITLTCSASSSVSYMLWYQQKSGTSPKLLIYTTSNLASGVPSRFSGTGSGTFYSLTISSVEAEDAADYYCHQWSSYPRTFGGGTKLEIKR
As for B10, the interferometry response value in assay [2] was 1.6; in assay [3], 2.11; in assay [4] it was 0.11; in assay [5], 1.69.
